We go through 1 molecule from paper PMC5548887 (2017).

For one experiment, the target named is UbcH7 wild type (UniProt P68036 1-154). As to the kind of experiment: ITC.
The target in the next experiment is UbcH7 K96S (UniProt P68036 1-154, K96S). Briefly: ITC. (In ITC the heat of successive injections is recorded.)

B1: HHARI^ΔHG (protein)
chain: MDSDEGYNYEFDEDEECSEEDSGAEEEEDEDDDEPDDDTLDLGEVELVEPGLGVGGERDGLLCGETGGGGGSALGPGGGGGGGGGGGGGGPGHEQEEDYRYEVLTAEQILQHMVECIREVNEVIQNPATITRILLSHFNWDKEKLMERYFDGNLEKLFAECHVINPSKKSRTRQMNTRSSAQDMPCQICYLNYPNSYFTGLECGHKFCMQCWSEYLTTKIMEEGMGQTISCPACDILVDDNTVMRLITDSKVKLKYQHLITNSFVECNRLLKWCPAPDCHHVVKVQYPDAKPVRCKCGRQFCFNCGENWHDPVKCKWLKKWIKKCDDDSETSNWIAANTKECPKCHVTIEKDGGCNHMVCRNQNCKAEFCWVCLGPWEPHGSAWYNCNRYNEDDAKAA
By Kd is commonly meant the concentration at which binding is half-saturated. As for B1, the Kd with UbcH7 wild type was 0.965 µM; with UbcH7 K96S it was 15.7 µM.
